Among the data in patent US20220348679A1 (MYTHIC THERAPEUTICS, published 2022) are IC50 values, retold here.

The target in the experiment is T1, LRRC15 on U-87 MG (LRRC15+) cells (UniProt Q8TF66 22-581, limits assumed).
T1 construct: whole, on cells; also called cell surface LRRC15
T1 sequence (looked up): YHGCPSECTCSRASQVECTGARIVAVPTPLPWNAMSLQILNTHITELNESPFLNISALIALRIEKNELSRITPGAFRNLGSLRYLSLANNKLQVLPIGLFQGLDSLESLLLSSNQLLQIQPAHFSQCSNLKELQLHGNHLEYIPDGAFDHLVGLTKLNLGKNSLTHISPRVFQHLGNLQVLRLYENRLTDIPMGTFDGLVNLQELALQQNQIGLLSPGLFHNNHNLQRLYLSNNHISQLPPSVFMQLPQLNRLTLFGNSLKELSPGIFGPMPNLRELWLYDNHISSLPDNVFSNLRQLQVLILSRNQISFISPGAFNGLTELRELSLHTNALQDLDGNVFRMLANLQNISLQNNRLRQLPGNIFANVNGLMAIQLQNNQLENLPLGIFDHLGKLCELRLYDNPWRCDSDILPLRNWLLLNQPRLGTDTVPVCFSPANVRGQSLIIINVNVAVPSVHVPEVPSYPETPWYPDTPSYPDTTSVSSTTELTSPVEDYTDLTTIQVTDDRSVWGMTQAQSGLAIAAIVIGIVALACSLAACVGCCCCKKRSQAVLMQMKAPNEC
Description: flow cytometry on U-87 MG (LRRC15+) cells; the text of Example 22 calls the fitted value a dissociation constant KD. The procedure:
Binding affinity of selected LRRC15 pH engineered antibody variants from Example 9 were measured on U-87 MG (LRRC15+) cells. 100,000 U-87 MG cells (ATCC HTB-14) were seeded per well in a 96 well deep well plate. Samrotamab and a pH engineered antibody variant were serially diluted at a 1:3 dilution in ice cold FC buffer (phosphate buffered saline (PBS), pH 7.4+2 mM ethylenediaminetetraacetic acid (EDTA)+2% (v/v) HI FBS). The plates were spun at 2,000 RPM for 2 minutes, the supernatant was removed, and 100 μL of diluted antibody was added to each well with final concentration ranging from 60 nM to 1 pM and incubated for 2 hours at 4° C. Post incubation, the cells were spun at 2000 rpm for 2 min and supernatant was discarded. Cells were washed twice with 500 μL of ice-cold FC buffer and resuspended with 100 μL of FC buffer. The cells were then transferred from the deep well plate to 96 well round bottom plate, spun at 2000 rpm for 2 min and incubated with 100 μL of 10 μg/mL Alexa Fluor 488 conjugated goat anti-human IgG secondary antibody (ThermoFisher Scientific, A11013) for 30 min. Post incubation, cells were washed with FC buffer and resuspended in 100 μL of FC buffer to read on a BD Accuri C6 flow cytometer. Binding affinity was measured as a dissociation constant KD by GraphPad Prism assuming Michaelis-Menten binding kinetics.
(Flow cytometry measures light scatter and fluorescence of single cells or particles in a stream.)

B1: samrotamab (antibody, V domains shown)
VH: EVQLVQSGAEVKKPGASVKVSCKASGYKFSSYWIEWVKQAPGQGLEWIGEILPGSDTTNYNEKFKDRATFTSDTSINTAYMELSRLRSDDTAVYYCARDRGNYRAWFGYWGQGTLVTVSS
VL: DIQMTQSPSSLSASVGDRVTITCRASQDISNYLNWYQQKPGGAVKFLIYYTSRLHSGVPSRFSGSGSGTDYTLTISSLQPEDFATYFCQQGEALPWTFGGGTKVEIK
notes: IgG; also called MYT0963
As usually defined, the IC50 is the concentration at which inhibition is half-maximal. A lower IC50 goes with inhibition by little substance. On to B1, for which the 50% inhibitory concentration (IC50) came out at 0.228 nM.

B2: MYT0971 (antibody, V domains shown)
VH: EVQLVQSGAEVKKPGASVKVSCKASGYKFSSYHIEWVKQAPGQGLEWIGEILPGSDTTNYNEKFKDRATFTSDTSINTAYMELSRLRSDDTAVYYCARDRGNYRAWFGYWGQGTLVTVSS
VL: DIQMTQSPSSLSASVGDRVTITCRASQDISNYLNWYQQKPGGAVKFLIYYTSRLHSGVPSRFSGSGSGTDYTLTISSLQPEDFATYFCQQGEALPWTFGGGTKVEIK
notes: IgG
B2 yielded a 50% inhibitory concentration (IC50) of 0.484 nM.
